In patent EP4818204A1 (Nanjing Leads Biolabs Co., Ltd., dated 2026):
Where two headings read alike, the source gives them in different places.

What was measured:
Test in all cases: ELISA, coated protein, antibody at 4 µg/mL
[1] = biological target: human GDF8 protein (human) (UniProt O14793)
human GDF1 protein [2] = biological target: T1, human GDF1 protein (human, UniProt P27539 254-372, limits assumed)
T1 construct: Bought
T1 sequence (looked up): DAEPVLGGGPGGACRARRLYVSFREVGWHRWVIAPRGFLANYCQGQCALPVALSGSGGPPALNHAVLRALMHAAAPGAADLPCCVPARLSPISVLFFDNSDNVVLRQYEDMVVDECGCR

human GDF11 protein [3] = biological target: T2, human GDF11 protein (human, UniProt O95390 299-407)
T2 construct: Bought
T2 sequence (looked up): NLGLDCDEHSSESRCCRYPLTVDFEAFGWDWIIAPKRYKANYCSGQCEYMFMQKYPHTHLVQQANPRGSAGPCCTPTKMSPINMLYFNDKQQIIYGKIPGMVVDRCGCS

Human GDF15 protein [4] = biological target: T3, Human GDF15 protein (human, UniProt Q99988 197-308)
T3 construct: Natural GDF15 is said to be a disulfide-linked homodimer; also called Human-GDF15-his
T3 sequence: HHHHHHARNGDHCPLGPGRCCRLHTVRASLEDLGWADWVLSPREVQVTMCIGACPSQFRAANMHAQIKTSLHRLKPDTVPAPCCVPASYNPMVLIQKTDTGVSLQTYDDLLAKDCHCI

human Activin B protein [5] = biological target: T4, human Activin B protein (human, UniProt P09529 293-407)
T4 construct: Bought; Activin B is by nature a dimer of inhibin beta B chains
T4 sequence (looked up): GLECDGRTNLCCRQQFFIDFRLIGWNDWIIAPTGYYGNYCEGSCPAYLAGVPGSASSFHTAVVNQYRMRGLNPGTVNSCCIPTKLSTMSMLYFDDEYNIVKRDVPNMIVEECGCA

human Activin A protein [6] = biological target: T5, human Activin A protein (human, UniProt P08476 311-426)
T5 construct: Bought; Activin A is by nature a dimer of inhibin beta A chains
T5 sequence (looked up): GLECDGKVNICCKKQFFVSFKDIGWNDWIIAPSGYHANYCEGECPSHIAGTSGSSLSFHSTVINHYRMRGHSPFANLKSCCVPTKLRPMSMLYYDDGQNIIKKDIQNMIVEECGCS

human BMP4 protein [7] = biological target: T6, human BMP4 protein (human, UniProt P12644 293-408)
T6 construct: Bought
T6 sequence (looked up): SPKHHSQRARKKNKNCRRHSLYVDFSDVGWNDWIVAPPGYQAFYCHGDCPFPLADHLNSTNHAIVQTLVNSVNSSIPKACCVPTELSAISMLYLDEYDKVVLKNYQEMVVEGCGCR

human BMP2 protein [8] = biological target: T7, human BMP2 protein (human, UniProt P12643 283-396)
T7 construct: Bought
T7 sequence (P12643 283-396 limits assumed): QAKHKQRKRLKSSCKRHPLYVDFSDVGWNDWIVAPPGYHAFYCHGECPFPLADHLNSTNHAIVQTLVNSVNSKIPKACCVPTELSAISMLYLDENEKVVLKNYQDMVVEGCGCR

human TGFβ1 protein [9] = biological target: T8, human TGFβ1 protein (human, UniProt P01137 279-390)
T8 construct: Bought
T8 sequence (P01137 279-390 limits assumed): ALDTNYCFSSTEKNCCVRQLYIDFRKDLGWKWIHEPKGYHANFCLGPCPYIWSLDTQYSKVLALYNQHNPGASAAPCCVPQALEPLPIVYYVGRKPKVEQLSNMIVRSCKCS

human GDNF protein [10] = biological target: T9, human GDNF protein (human, UniProt P39905 78-211)
T9 construct: Bought
T9 sequence (looked up): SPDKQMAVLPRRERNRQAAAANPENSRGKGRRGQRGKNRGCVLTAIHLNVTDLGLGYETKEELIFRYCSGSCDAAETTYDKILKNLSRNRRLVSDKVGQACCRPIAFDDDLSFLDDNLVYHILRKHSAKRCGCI

[11] = biological target: human AMH protein (human) (UniProt P03971)
human GDF2 protein [12] = biological target: T10, human GDF2 protein (human, UniProt Q9UK05 320-429)
T10 construct: Bought
T10 sequence (looked up): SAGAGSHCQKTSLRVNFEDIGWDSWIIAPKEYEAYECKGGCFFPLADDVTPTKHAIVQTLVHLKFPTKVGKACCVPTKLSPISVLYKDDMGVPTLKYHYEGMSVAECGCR

human GFRα1 protein [13] = biological target: T11, human GFRα1 protein (human, UniProt P56159 25-429, limits assumed)
T11 construct: Bought
T11 sequence (looked up): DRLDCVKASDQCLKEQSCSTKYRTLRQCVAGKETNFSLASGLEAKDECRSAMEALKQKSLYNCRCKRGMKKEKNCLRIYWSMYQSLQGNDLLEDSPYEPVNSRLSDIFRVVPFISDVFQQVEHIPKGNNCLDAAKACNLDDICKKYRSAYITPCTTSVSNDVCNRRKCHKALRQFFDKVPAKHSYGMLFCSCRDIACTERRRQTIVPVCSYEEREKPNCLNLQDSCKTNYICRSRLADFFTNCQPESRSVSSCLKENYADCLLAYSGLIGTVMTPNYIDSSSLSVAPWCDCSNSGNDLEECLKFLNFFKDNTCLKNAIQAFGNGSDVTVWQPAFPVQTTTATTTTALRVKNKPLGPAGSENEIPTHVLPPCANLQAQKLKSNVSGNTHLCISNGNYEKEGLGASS

human GDF3 protein [14] = biological target: T12, human GDF3 protein (human, UniProt Q9NR23 251-364, limits assumed)
T12 construct: Bought
T12 sequence (looked up): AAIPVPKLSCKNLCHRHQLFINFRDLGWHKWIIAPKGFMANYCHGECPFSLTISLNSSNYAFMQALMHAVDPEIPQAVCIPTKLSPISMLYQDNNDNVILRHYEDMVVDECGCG

[15] = biological target: human GDF8 protein (human) (UniProt O14793); remark: listed apart in the source
human GDF1 protein [16] = biological target: T1, human GDF1 protein; remark: listed apart in the source
human GDF11 protein [17] = biological target: T2, human GDF11 protein; remark: listed apart in the source
Human GDF15 protein [18] = biological target: T3, Human GDF15 protein; remark: listed apart in the source
human Activin B protein [19] = biological target: T4, human Activin B protein; remark: listed apart in the source
human Activin A protein [20] = biological target: T5, human Activin A protein; remark: listed apart in the source
human BMP4 protein [21] = biological target: T6, human BMP4 protein; remark: listed apart in the source
human BMP2 protein [22] = biological target: T7, human BMP2 protein; remark: listed apart in the source
human TGFβ1 protein [23] = biological target: T8, human TGFβ1 protein; remark: listed apart in the source
human GDNF protein [24] = biological target: T9, human GDNF protein; remark: listed apart in the source
[25] = biological target: human AMH protein (human) (UniProt P03971); remark: listed apart in the source
human GDF2 protein [26] = biological target: T10, human GDF2 protein; remark: listed apart in the source
human GFRα1 protein [27] = biological target: T11, human GFRα1 protein; remark: listed apart in the source
human GDF3 protein [28] = biological target: T12, human GDF3 protein; remark: listed apart in the source

IgG control (Sino Biological, Cat. No.: HG1K) (antibody)
OD value (OD 450 nm-620 nm) [1]: 0.0351
OD value (OD 450 nm-620 nm) (human GDF1 protein [2]): 0.0416
OD value (OD 450 nm-620 nm) (human GDF11 protein [3]): 0.038
OD value (OD 450 nm-620 nm) (Human GDF15 protein [4]): 0.0386
OD value (OD 450 nm-620 nm) (human Activin B protein [5]): 0.168
OD value (OD 450 nm-620 nm) (human Activin A protein [6]): 0.0524
OD value (OD 450 nm-620 nm) (human BMP4 protein [7]): 0.0439
OD value (OD 450 nm-620 nm) (human BMP2 protein [8]): 0.0463
OD value (OD 450 nm-620 nm) (human TGFβ1 protein [9]): 0.0376
OD value (OD 450 nm-620 nm) (human GDNF protein [10]): 0.036
OD value (OD 450 nm-620 nm) [11]: 0.0465
OD value (OD 450 nm-620 nm) (human GDF2 protein [12]): 0.0622
OD value (OD 450 nm-620 nm) (human GFRα1 protein [13]): 0.125
OD value (OD 450 nm-620 nm) (human GDF3 protein [14]): 0.04
OD value (OD 450 nm-620 nm) [15]: 0.0485
OD value (OD 450 nm-620 nm) (human GDF1 protein [16]): 0.101
OD value (OD 450 nm-620 nm) (human GDF11 protein [17]): 0.0659
OD value (OD 450 nm-620 nm) (Human GDF15 protein [18]): 0.043
OD value (OD 450 nm-620 nm) (human Activin B protein [19]): 0.082
OD value (OD 450 nm-620 nm) (human Activin A protein [20]): 0.0474
OD value (OD 450 nm-620 nm) (human BMP4 protein [21]): 0.0464
OD value (OD 450 nm-620 nm) (human BMP2 protein [22]): 0.055
OD value (OD 450 nm-620 nm) (human TGFβ1 protein [23]): 0.111
OD value (OD 450 nm-620 nm) (human GDNF protein [24]): 0.0493
OD value (OD 450 nm-620 nm) [25]: 0.0569
OD value (OD 450 nm-620 nm) (human GDF2 protein [26]): 0.0444
OD value (OD 450 nm-620 nm) (human GFRα1 protein [27]): 0.0807
OD value (OD 450 nm-620 nm) (human GDF3 protein [28]): 0.0556
